Results as given in patent US20130323187A1.
* marks the point of attachment. Decanoyl = CCCCCCCCCC(=O)*; CH2Cl = ClC*

Assays:
[1] = tested on: L-Bel1
[2] = tested on: T1, Decanoyl-Arg-Val-Lys-Arg-CMK (FI-I, CALBIOCHEM)
T1 sequence: RVKR

[3] = tested on: T2, D-9Rac/am
T2 sequence: XXXXXXXXXXXXX

[4] = tested on: T3, D-6R
T3 sequence: XXXXXXXXXX

[5] = target: Recombinant furin; assay: Ki for inhibition of furin, given as the comparison in the Boc-RVRR-MCA enzyme assay
Sequence of Recombinant furin (P09958 108-715): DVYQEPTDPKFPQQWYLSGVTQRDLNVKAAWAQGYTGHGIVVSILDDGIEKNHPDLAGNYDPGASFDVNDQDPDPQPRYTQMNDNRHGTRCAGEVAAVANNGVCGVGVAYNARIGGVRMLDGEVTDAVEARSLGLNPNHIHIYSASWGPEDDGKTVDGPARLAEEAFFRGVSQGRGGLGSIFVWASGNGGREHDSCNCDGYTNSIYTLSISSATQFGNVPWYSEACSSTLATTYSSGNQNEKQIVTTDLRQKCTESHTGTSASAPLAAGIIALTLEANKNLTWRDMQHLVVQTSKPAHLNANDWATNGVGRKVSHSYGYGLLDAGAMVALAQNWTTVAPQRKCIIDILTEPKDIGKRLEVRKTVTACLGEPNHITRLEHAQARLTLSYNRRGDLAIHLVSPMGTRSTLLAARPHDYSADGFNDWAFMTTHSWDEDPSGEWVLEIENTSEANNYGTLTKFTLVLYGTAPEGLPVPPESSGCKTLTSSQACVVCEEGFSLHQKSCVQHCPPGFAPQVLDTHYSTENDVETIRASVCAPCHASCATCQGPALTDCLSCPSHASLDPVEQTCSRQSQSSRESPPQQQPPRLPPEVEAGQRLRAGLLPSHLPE

## Recombinant furin
[1]
  in vitro furin activity (cleavage of Boc-RVRR-MCA): inhibited to completion in vitro furin activity
[2]
  in vitro furin activity (cleavage of Boc-RVRR-MCA): furin activity is inhibited by the specific furin inhibitor Decanoyl (d)-RVKR-chloromethylketone (CMK)
[3]
  in vitro furin activity (cleavage of Boc-RVRR-MCA): inhibited to completion in vitro furin activity
[4]
  in vitro furin activity (cleavage of Boc-RVRR-MCA): inhibited to completion in vitro furin activity

## Decanoyl-RVKR-CH2Cl [Decanoyl-Arg-Val-Lys-Arg-CMK (FI-I, CALBIOCHEM)]
[5]
  Ki: 1 nM
